± gives the standard deviation of the averaged measurements.
B1: library; a variant is named by its letters at N, in order (parent)
chain: GCUGUCACCGAGAAACUGUGAAGUAUAUCUUAAACCUGGGCACUUAAAAGAUAUAUGGAGUUAGUAGUGCAACCUGCUCGGUCUGAUGAGUCCNNNNNNGGACGAAACAGC

Key:
[1] = variants of: B1; experiment: normalized RNA/DNA level without ligand (relative to sTRSVctl = 100) (log10 (% of sTRSVctl)); HEK293T; ligand: cyclic di-GMP (c-di-GMP-II aptamer); higher = less ribozyme self-cleavage, higher mRNA level; settings: reporter: mCherry (pCS4076), ligand present: no
In short: (§1)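 Total RNA, extracted with EDTA 72 h after HEK293T cells were transfected with 4 µg per 6-well well of reporter-linked ribozyme switch library plasmids, was reverse-transcribed, amplified, barcoded and sequenced. Ligand, if used, was added 1 h before transfection. RNA level was derived from RNA reads divided by DNA reads and normalized to a spiked-in non-cleaving sequence or to the top sequences. This was multiplied by 100 and log10-transformed, with the top set of 25 sequences and a ≥100 DNA read minimum.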

[2] = variants of: B1; experiment: normalized RNA/DNA level with ligand (relative to sTRSVctl = 100) (log10 (% of sTRSVctl)); HEK293T; ligand: cyclic di-GMP (c-di-GMP-II aptamer); ligand concentration (+) RNA-Seq: 1 mM; higher = less ribozyme self-cleavage, higher mRNA level; settings: reporter: mCherry (pCS4076), ligand present: yes
In short: as §1

Variant	normalized RNA/DNA level without ligand (log10) [1]	normalized RNA/DNA level with ligand (log10) [2]
CAUUUU	1.535 ± 0.0069	1.76 ± 0.16
UCCGUU	1.6717 ± 0.00065	1.85 ± 0.12
UCCUGU	1.72 ± 0.018	1.88 ± 0.059
GUGUCC	1.77 ± 0.045	1.86 ± 0.094
GGCUUC	1.75 ± 0.064	1.82 ± 0.12
CCUUUG	1.59 ± 0.078	1.77 ± 0.053
CCUUUC	1.7 ± 0.021	1.85 ± 0.098
UAUCGU	1.67 ± 0.02	1.79 ± 0.095
ACAGGU	1.42 ± 0.16	1.64 ± 0.07
GGAAUC	1.55 ± 0.016	1.76 ± 0.09
ACUUUC	1.73 ± 0.042	1.85 ± 0.13
UUAACU	1.77 ± 0.02	1.87 ± 0.071
GUGUAG	1.7031 ± 0.0011	1.85 ± 0.095
UCUCGC	1.808 ± 0.017	1.88 ± 0.098
CUGAGG	1.73 ± 0.031	1.88 ± 0.16
UGUCCC	1.81 ± 0.072	1.88 ± 0.17
UCUAUA	1.56 ± 0.067	1.74 ± 0.12
GACCCG	1.7824 ± 0.00091	1.86 ± 0.11
GUAUCC	1.73 ± 0.028	1.86 ± 0.13
GAACAA	1.55 ± 0.03	1.7 ± 0.14
CUAAAG	1.64 ± 0.033	1.79 ± 0.055
GCUCCU	1.71 ± 0.0058	1.85 ± 0.081
UGGGUA	1.61 ± 0.071	1.78 ± 0.029
AUGAGC	1.62 ± 0.066	1.8 ± 0.082

Variant	normalized RNA/DNA level without ligand (log10) [1]	normalized RNA/DNA level with ligand (log10) [2]
AGAGCA	1.806 ± 0.017	1.87 ± 0.098
AGAGCU	1.713 ± 0.012	1.84 ± 0.043
GAUUUU	1.656 ± 0.01	1.81 ± 0.14
CCGUUC	1.6 ± 0.047	1.78 ± 0.056
AAUUGC	1.696 ± 0.016	1.83 ± 0.091
UACCGA	1.56 ± 0.058	1.77 ± 0.068
UACCGU	1.59 ± 0.027	1.75 ± 0.1
AUUCUC	1.806 ± 0.0079	1.89 ± 0.1
CAAAGG	1.59 ± 0.033	1.75 ± 0.081
ACUUCG	1.66 ± 0.067	1.79 ± 0.069
GCACCC	1.66 ± 0.027	1.84 ± 0.075
CAUUGC	1.78 ± 0.056	1.85 ± 0.15
UGCCAU	1.694 ± 0.0071	1.81 ± 0.11
CAAUUA	1.32 ± 0.1	1.53 ± 0.05
CAAUUG	1.733 ± 0.0033	1.87 ± 0.065
UUCCUA	1.68 ± 0.018	1.83 ± 0.11
AAAGCA	1.656 ± 0.0051	1.77 ± 0.11
CUAUGA	1.6 ± 0.059	1.76 ± 0.058
UAUGUG	1.71 ± 0.047	1.86 ± 0.13
GCUCGA	1.57 ± 0.04	1.73 ± 0.099
GACUGG	1.68 ± 0.074	1.78 ± 0.1
GACUGC	1.705 ± 0.012	1.88 ± 0.068
UUUCUC	1.8 ± 0.024	1.92 ± 0.085
CAGAUC	1.61 ± 0.03	1.71 ± 0.18

Variant	normalized RNA/DNA level without ligand (log10) [1]	normalized RNA/DNA level with ligand (log10) [2]
UAGUCG	1.8 ± 0.021	1.91 ± 0.14
GAGCUC	1.83 ± 0.052	1.91 ± 0.15
UGCAGC	1.77 ± 0.031	1.87 ± 0.11
UUUGAU	1.649 ± 0.014	1.82 ± 0.12
GGCCUG	1.82 ± 0.026	1.87 ± 0.19
GUUUAG	1.59 ± 0.041	1.78 ± 0.091
CCUGUG	1.54 ± 0.12	1.76 ± 0.049
ACGGCG	1.75 ± 0.067	1.86 ± 0.1
GGCUGG	1.746 ± 0.013	1.82 ± 0.092
CAGCAG	1.79 ± 0.028	1.85 ± 0.12
AUACUA	1.597 ± 0.0074	1.78 ± 0.18
UCCAAU	1.645 ± 0.015	1.82 ± 0.12
CGCGAG	1.743 ± 0.0083	1.828 ± 0.012
AACCGU	1.54 ± 0.056	1.74 ± 0.091
UACCUC	1.79 ± 0.0062	1.93 ± 0.093
CGUCAG	1.79 ± 0.056	1.92 ± 0.11
AGGAUU	1.49 ± 0.032	1.73 ± 0.12
CAAGUC	1.7 ± 0.055	1.78 ± 0.14
UCCUAG	1.71 ± 0.018	1.82 ± 0.087
GUAGAC	1.595 ± 0.0029	1.79 ± 0.13
AGAAAU	1.71 ± 0.03	1.83 ± 0.058
UGGCAA	1.64 ± 0.028	1.8 ± 0.1
CCCUCU	1.62 ± 0.03	1.8 ± 0.12
ACCGAU	1.48 ± 0.072	1.67 ± 0.091

Variant	normalized RNA/DNA level without ligand (log10) [1]	normalized RNA/DNA level with ligand (log10) [2]
GAGAUG	1.748 ± 0.0058	1.83 ± 0.071
AGGGGA	1.53 ± 0.1	1.59 ± 0.054
AAAAAA	1.37 ± 0.12	1.6 ± 0.078
AAAAGU	1.52 ± 0.071	1.71 ± 0.057
ACCUCG	1.73 ± 0.056	1.83 ± 0.15
CACUUU	1.51 ± 0.057	1.7 ± 0.17
CACGAU	1.68 ± 0.032	1.83 ± 0.089
GCGCAC	1.51 ± 0.075	1.66 ± 0.075
GUCCGU	1.65 ± 0.038	1.82 ± 0.069
UUCACA	1.81 ± 0.029	1.89 ± 0.16
AAAGUG	1.52 ± 0.099	1.67 ± 0.074
CUCUCA	1.57 ± 0.056	1.78 ± 0.098
CUCAGC	1.76 ± 0.076	1.89 ± 0.13
CCCCUC	1.73 ± 0.0095	1.87 ± 0.079
GCCCCC	1.78 ± 0.026	1.88 ± 0.084
ACGUAG	1.55 ± 0.021	1.72 ± 0.14
CCCGUU	1.74 ± 0.032	1.87 ± 0.089
AUCAAC	1.61 ± 0.063	1.8 ± 0.09
UGCACU	1.74 ± 0.021	1.87 ± 0.094
UGGUCU	1.75 ± 0.048	1.91 ± 0.11
AGCCCC	1.81 ± 0.031	1.92 ± 0.12
AAAUAG	1.54 ± 0.025	1.7 ± 0.16
UUUUGA	1.74 ± 0.062	1.89 ± 0.2
CCUAAA	1.4 ± 0.07	1.61 ± 0.14

Variant	normalized RNA/DNA level without ligand (log10) [1]	normalized RNA/DNA level with ligand (log10) [2]
UCGAAG	1.52 ± 0.097	1.74 ± 0.058
GAUAUG	1.52 ± 0.028	1.71 ± 0.096
GACAUU	1.66 ± 0.044	1.8 ± 0.074
UCGAUG	1.54 ± 0.1	1.72 ± 0.14
AGACCU	1.76 ± 0.057	1.895 ± 0.0095
AGCAGU	1.689 ± 0.0032	1.84 ± 0.13
UUUCAU	1.72 ± 0.035	1.83 ± 0.12
GAACGC	1.64 ± 0.07	1.78 ± 0.058
AUCGUU	1.6 ± 0.035	1.78 ± 0.048
UCUUGC	1.752 ± 0.0056	1.88 ± 0.11
AAGAGC	1.59 ± 0.05	1.71 ± 0.1
UCGUCA	1.644 ± 0.00093	1.82 ± 0.11
AUUACU	1.73 ± 0.029	1.86 ± 0.081
GAUCCC	1.79 ± 0.027	1.89 ± 0.082
CUUGAG	1.68 ± 0.017	1.79 ± 0.09
UUACUG	1.67 ± 0.016	1.84 ± 0.096
UACAGU	1.62 ± 0.021	1.8 ± 0.069
AUCACU	1.74 ± 0.057	1.88 ± 0.12
GCCUUA	1.657 ± 0.0086	1.82 ± 0.1
UCAAAC	1.63 ± 0.026	1.8 ± 0.079

Source: the supplement of paper PMC6757056
